{"source": "paper PMC4546571", "about": "(Chemistry & biology, 2015)", "target": "the molecule itself", "assay": "seeded fibril assembly followed by ThT fluorescence"}
{"protein": "GIHKQKEKSRLQGGVLVNEILNHMKRATQIPSYKKLIMY (peptide, UniProt P15309 248-286, looked up)", "note": "[PAP248-286]", "values": [{"measurement": "binding result", "value": "binds"}]}
